Measured values: patent US20120244080A1 (GEORGIA STATE UNIVERSITY RESEARCH FOUNDATION, published 2012)

T1: GLP-1 receptor (GLP-1R) on rat insulinoma RINm5F cells (rat (RINm5F rat insulinoma cells), UniProt P32301 22-463)
T1 construct: whole, on cells; also called GLP-R
T1 sequence (looked up): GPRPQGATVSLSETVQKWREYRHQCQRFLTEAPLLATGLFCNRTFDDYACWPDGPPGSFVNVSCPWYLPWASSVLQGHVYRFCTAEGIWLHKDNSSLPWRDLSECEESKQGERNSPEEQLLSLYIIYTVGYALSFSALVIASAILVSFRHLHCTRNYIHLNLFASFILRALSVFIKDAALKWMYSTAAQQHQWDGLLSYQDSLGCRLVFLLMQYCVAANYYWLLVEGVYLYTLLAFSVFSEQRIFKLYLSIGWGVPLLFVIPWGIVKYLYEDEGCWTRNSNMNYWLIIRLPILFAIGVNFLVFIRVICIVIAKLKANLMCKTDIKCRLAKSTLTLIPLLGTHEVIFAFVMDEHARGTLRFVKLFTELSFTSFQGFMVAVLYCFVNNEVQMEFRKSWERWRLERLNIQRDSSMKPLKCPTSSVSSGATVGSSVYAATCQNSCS


Legend:
[1] = target: T1, GLP-1 receptor (GLP-1R) on rat …; assay: immunofluorescence staining of RINm5F cells (GLP-1R expressing) after 30 min at 37 °C, detected with rabbit polyclonal anti-calbindin D9k
Protocol: The cells were extensively washed after 30 min treatments under 37° C. in microscopic chamber slides and subsequently fixed. […] The light shading represents antibody staining.
It is well known that GLP-1R is expressed in RINm5F but not in CHO cells. […] Similar binding analyses were carried out with RINm5F cells and a […] (αTC1).

[2] = target: T1, GLP-1 receptor (GLP-1R) on rat …; assay: cell-based or functional assay

| binding result [1] | intracellular cAMP level in rat insulinoma RINm5F cells (Lance cAMP 384 kit), IC50 [2] [nM] | Binder |
| --- | --- | --- |
| no binding (tested: 50 µM) |  | Human Calbindin D9k (other, Negative control and parental host protein) STKKSPEELKRIFEKYAAKEGDPDQLSKDELKLLIQAEFPSLLKGPNTLDDLFQELDKNGDGEVSFEEFQVLVKKISQ |
|  | ~20 | Fusion Protein Cal.GLP (human Calbindin D9k-GLP-1 fusion protein) (designed binder) MSTKKSPEELKRIFEKYAAKEGDPDQLSKDELKLLIQAEFPSLLKGPNTLDDLFQELDKNGHAEGTFTSDVSSYLEGQAAKEFIAWLVKGRG |
